Data: US20220281976A1 (Alector, published 2022)
Changes are numbered by the printed parent chain.

T1: mouse CD33 Fc fusion protein (mouse, UniProt Q63994 18-240, limits assumed)
T1 construct: also called mCD33-Fc
T1 sequence: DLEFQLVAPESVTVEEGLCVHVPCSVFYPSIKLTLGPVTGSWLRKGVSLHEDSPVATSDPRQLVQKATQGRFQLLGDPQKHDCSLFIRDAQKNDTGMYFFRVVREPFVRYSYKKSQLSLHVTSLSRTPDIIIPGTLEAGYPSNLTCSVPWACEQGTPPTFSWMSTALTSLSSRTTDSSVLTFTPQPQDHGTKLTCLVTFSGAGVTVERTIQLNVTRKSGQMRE

B1: C-27 (antibody, V domains shown)
VH: QVQLVQSGAEVKKPGASVKVSCKASGYTFTSYYMHWVRQAPGQGLEWMGVINPSGGSTSYAQKFQGRVTMTRDTSTSTVYMELSSLRSEDTAVYYCARESQYYDVHGMDVWGQGTTVTVSS
VL: DIQMTQSPSSLSASVGDRVTITCRASQSISSYLNWYQQKPGKAPKLLIYAASSLQSGVPSRFSGSGSGTDFTLTISSLQPEDFATYYCQQHYDIPLTFGGGTKVEIK
notes: human IgG1
B2: C-72 (antibody, V domains shown)
VH: QVQLVESGGGVVQPGRSLRLSCAASGFTFSSYGMHWVRQAPGKGLEWVAVIWYDGSNKYYADSVKGRFTISRDNSKNTLYLQMNSLRAEDTAVYYCAKEGGTYSDDFDLWGGGTLVTVSS
VL: B1 VL with L11V, S28G, Y32W, N34A, H91A, Y92S, D93S, I94F
notes: human IgG1
B3: C-61 (antibody, V domains shown)
VH: B1 VH
VL: EIVLTQSPGTLSLSPGERATLSCRASQSVSSSYLAWYQQKPGQAPRLLIYGASSRATGIPDRFSGSGSGTDFTLTISRLEPEDFAVYYCQQYYGLPLTFGGGTKVEIK
notes: human IgG1
B4: C-60 (antibody, V domains shown)
VH: B1 VH
VL: B1 VL with M4L, H91S, Y92V, D93H, I94V, L96I
notes: human IgG1
B5: C-65 (antibody, V domains shown)
VH: B1 VH
VL: B1 VL with H91Q, D93T, I94L, L96P
notes: human IgG1
B6: C-75 (antibody, V domains shown)
VH: EVQLLESGGGLVQPGGSLRLSCAASGFTFSSYAMSWVRQAPGKGLEWVSAISASGGSTYYADSVKGRFTISRDNSKNTLYLQMNSLRAEDTAVYYCARLHMTGTASSGMDVWGQGTTVTVSS
VL: DIVMTQSPDSLAVSLGERATINCKSSQSVLYSSNNKNYLAWYQQKPGQAPRLLIYGASSRATGIPDRFSGSGSGTDFTLTISRLEPEDFAVYYCQQDYSSPLTFGGGTKVEIK
notes: human IgG1
B7: C-76 (antibody, V domains shown)
VH: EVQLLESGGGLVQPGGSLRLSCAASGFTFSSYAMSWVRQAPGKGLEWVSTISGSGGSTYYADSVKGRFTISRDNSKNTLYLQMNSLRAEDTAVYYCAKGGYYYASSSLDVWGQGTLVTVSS
VL: B6 VL with S99N
notes: human IgG1
B8: C-6 (antibody, V domains shown)
VH: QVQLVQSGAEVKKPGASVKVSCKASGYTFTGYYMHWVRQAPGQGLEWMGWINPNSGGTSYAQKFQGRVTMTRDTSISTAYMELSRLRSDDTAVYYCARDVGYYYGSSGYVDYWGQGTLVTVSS
VL: DIQMTQSPSSVSASVGDRVTITCRASQGIDSWLAWYQQKPGKAPKLLIYAASSLQSGVPSRFSGSGSGTDFTLTISSLQPEDFATYYCQQASAHPPWTFGGGTKVEIK
notes: human IgG1
B9: C-69 (antibody, V domains shown)
VH: EVQLVESGGGLVQPGGSLRLSCAASGFTFSSYWMSWVRQAPGKGLEWVANIKSDGSEKYYVDSVKGRFTISRDNAKNSLYLQMNSLRAEDTAVYYCARAETYQLSSAFDIWGQGTMVTVSS
VL: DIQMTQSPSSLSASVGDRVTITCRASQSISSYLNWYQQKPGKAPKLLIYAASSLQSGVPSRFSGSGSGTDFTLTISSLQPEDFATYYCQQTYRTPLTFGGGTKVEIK
notes: human IgG1
B10: C-68 (antibody, V domains shown)
VH: QVQLQESGPGLVKPSQTLSLTCTVSGGSISSGGYYWSWIRQHPGKGLEWIGNIYYSGSTYYNPSLKSRVTISVDTSKNQFSLKLSSVTAADTAVYYCARDLPNSGSPGSDYFDYWGQGTLVTVSS
VL: B3 VL with Y93D, G94N, L95Y, L97P
notes: human IgG1

Target: T2, human CD33 (human, UniProt P20138 18-364)
Experiment: cell-based or functional assay

T2 sequence (P20138 18-364): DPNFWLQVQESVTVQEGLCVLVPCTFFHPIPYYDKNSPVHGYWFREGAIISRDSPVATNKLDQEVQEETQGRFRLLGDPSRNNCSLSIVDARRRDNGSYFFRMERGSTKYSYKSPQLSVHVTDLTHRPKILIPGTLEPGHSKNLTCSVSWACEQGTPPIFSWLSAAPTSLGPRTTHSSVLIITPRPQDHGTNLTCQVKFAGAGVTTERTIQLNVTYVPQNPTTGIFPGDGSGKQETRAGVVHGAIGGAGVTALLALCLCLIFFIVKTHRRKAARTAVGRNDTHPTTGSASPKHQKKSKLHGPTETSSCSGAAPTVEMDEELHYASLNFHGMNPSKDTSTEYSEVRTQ

| Binder | Percent CD33 Surface Expression, DC % CD33 [%] | Percent CD33 Surface Expression, Macrophage % CD33 [%] | Percent CD33 Surface Expression, Monocyte % CD33 [%] |
| --- | --- | --- | --- |
| B1 | 37.8 | 46.3 | 39.1 |
| B2 | 43.4 | 47.5 | 41.8 |
| B3 | 22.8 | 50.8 | 38.3 |
| B4 | 26.8 | 45.4 | 41.7 |
| B5 | 26.9 | 44.5 | 31.2 |
| B6 | 88.7 | – | 85.9 |
| B7 | 85.5 | – | 92.4 |
| B8 | 83 | 98.6 | 91 |
| B9 | 21.7 | 41.8 | 29.3 |
| B10 | 59.1 | – | 71.9 |

Target: T1, mouse CD33 Fc fusion protein
Experiment: ForteBio BLI or MSD-SET

| Binder | binding result |
| --- | --- |
| B1 | no binding (tested: 100 nM) |
| B2 | no binding (tested: 100 nM) |
| B3 | no binding (tested: 100 nM) |
| B4 | no binding (tested: 100 nM) |
| B5 | no binding (tested: 100 nM) |
| B6 | no binding (tested: 100 nM) |
| B7 | no binding (tested: 100 nM) |
| B8 | no binding (tested: 100 nM) |
| B9 | no binding (tested: 100 nM) |
| B10 | no binding (tested: 100 nM) |

Target: T3, human CD33 Fc fusion protein (human, UniProt P20138 18-259)
T3 construct: also called hCD33-Fc; human CD33/Fc chimera (R&D Systems)
Experiment: ForteBio BLI or MSD-SET, IgG, avid;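 note: Anti-CD33 IgG affinity by BLI, IgG captured on AHQ sensors with antigen in solution and a one-to-one kinetic fit, or by MSD solution equilibrium titration with quadratic fit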

T3 sequence (P20138 18-259 limits assumed): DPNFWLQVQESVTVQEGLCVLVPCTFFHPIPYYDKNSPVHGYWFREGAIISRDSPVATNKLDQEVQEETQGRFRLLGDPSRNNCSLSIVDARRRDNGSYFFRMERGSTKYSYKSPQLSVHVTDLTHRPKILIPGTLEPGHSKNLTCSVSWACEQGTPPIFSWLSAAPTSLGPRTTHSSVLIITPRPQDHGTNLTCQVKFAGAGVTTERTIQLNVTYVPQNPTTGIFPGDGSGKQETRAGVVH

| Binder | Kd [nM] |
| --- | --- |
| B1 | 1.67 |
| B2 | 1.77 |
| B3 | 2.06 |
| B4 | 1.66 |
| B5 | 1.62 |
| B6 | 1.04 |
| B7 | 3.01 |
| B8 | 2.83 |
| B9 | 2.94 |
| B10 | 4.61 |

Target: T2, human CD33
Experiment: flow cytometry, human primary T cells;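 note: binding of anti-CD33 antibodies at 10 ug/ml to human primary T cells, 1 h on ice, detected with PE-labelled secondary antibody, read as flow cytometry MFI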

| Binder | T cell MFI |
| --- | --- |
| B1 | 414 |
| B2 | 330 |
| B3 | 242 |
| B4 | 221 |
| B5 | 216 |
| B6 | 399 |
| B7 | 185 |
| B8 | 46 |
| B9 | 318 |
| B10 | 561 |

Target: T2, human CD33
Experiment: flow cytometry, human primary monocytes;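 note: binding of anti-CD33 antibodies at 10 ug/ml to human primary monocytes, 1 h on ice, detected by PE-labelled secondary antibody, flow cytometry readout as mean fluorescence intensity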
Set-up: reference not given here

| Binder | Monocyte MFI |
| --- | --- |
| B1 | 113 |
| B2 | 118 |
| B3 | 122 |
| B4 | 151 |
| B5 | 161 |
| B6 | 686 |
| B7 | 654 |
| B8 | 131 |
| B9 | 80 |
| B10 | 115 |

Target: T2, human CD33
Experiment: flow cytometry, human primary macrophages;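 note: binding of CD33 antibodies at 10 µg/ml to human primary macrophages, 1 h on ice, detected with PE-labelled secondary antibody by flow cytometry, reported as MFI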

| Binder | Macrophage MFI |
| --- | --- |
| B1 | 602 |
| B2 | 657 |
| B3 | 797 |
| B4 | 775 |
| B5 | 852 |
| B6 | 778 |
| B7 | 455 |
| B8 | 871 |
| B9 | 628 |
| B10 | 752 |

Target: T2, human CD33
Experiment: flow cytometry, human primary dendritic cells;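 note: binding of anti-CD33 antibodies (10 ug/ml, 1 h on ice) to human primary dendritic cells, detected with a PE-labelled secondary antibody, reported as flow cytometry MFI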
Procedure: Initial characterization of CD33 antibodies involved determining their ability to bind CD33 expressed on a CHO cell line, on human primary monocytes, human primary macrophages, human primary dendritic cells, and on human primary T cells. Cells were harvested, plated at 10⁶/ml in a 96 well plate, and incubated in 100 ul PBS containing 2% FBS, 2 mM EDTA and 10 ug/ml Mab and Fc blocking reagent for 1 hour in ice. Cells were washed twice and incubated in 100 ul PBS containing 2% FBS, 2 mM EDTA and 5 ug/ml PE-conjugated secondary antibody for 30 minutes on ice. Cells were washed twice in cold PBS and analyze by flow cytometry on a BD FACS Canto. Data analysis and calculation of MFI values was performed with FlowJo (TreeStar) software version 10.0.7.

| Binder | DC MFI |
| --- | --- |
| B1 | 1300 |
| B2 | 742 |
| B3 | 1310 |
| B4 | 1040 |
| B5 | 1330 |
| B6 | 46 |
| B7 | 43 |
| B8 | 1040 |
| B9 | 923 |
| B10 | 526 |

Target: T4, human monomeric His tagged CD33 protein (human, UniProt P20138 18-259)
T4 construct: also called hCD33-His
Experiment: ForteBio BLI or MSD-SET, IgG, monomeric antigen;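 note: BLI: antibodies captured on AHQ sensors, 100 nM antigen association 5 min, dissociation 5 min, 1:1 fit. MSD-SET: antigen fixed at 50 pM, antibody titrated, quadratic fit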

T4 sequence (P20138 18-259 limits assumed): as above

| Binder | Kd [nM] |
| --- | --- |
| B1 | 10.9 |
| B2 | 7.7 |
| B3 | 13.4 |
| B4 | 9.33 |
| B5 | 7.67 |
| B6 | 4.63 |
| B7 | 13.5 |
| B8 | 8.94 |
| B9 | 22.1 |
| B10 | 30.9 |

Target: T3, human CD33 Fc fusion protein
Experiment: RBC adhesion to plate-bound CD33-Fc; antibody 0.5 ug/ml;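 note: Plate-coated CD33-Fc preincubated 1 h with antibody, then red blood cells added for 1 h at room temperature, adherent cells lysed and quantified via peroxidase activity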
Procedure: Briefly, 5 ug/ml CD33-Fc was coated overnight at RT in 96 well Immunolon plates, then washed with PBS, blocked for one hour with binding buffer (PBS containing %0.25 BSA 1 mM CaCl₂). CD33 antibodies (0.5 ug/ml or 1.0 ug/ml) or Fabs (25 ug/ml) were bound for one hour at RT with gentle rocking. After removal of unbound antibody, red blood cells were added to each well at a concentration of 3.0×10⁶ cells per ml and incubated at RT for one hour. Unbound RBCs were then carefully washed off 3× with PBS, and water was added to each well for hypotonic lysis of bound RBCs. The plate was transferred to −80° C. for 10 minutes, followed by 37° C. for 15 minutes. Bound RBCs were detected by peroxidase activity, followed by 2N sulfuric acid to stop the reaction.

| Binder | Percent RBC Binding to CD33 [%] |
| --- | --- |
| B1 | 15.9 |
| B2 | 36.2 |
| B3 | 13.3 |
| B4 | 10.7 |
| B5 | 11.5 |
| B6 | 72.6 |
| B7 | 85.5 |
| B8 | 102 |
| B9 | 11.3 |
| B10 | 31.6 |

Target: T3, human CD33 Fc fusion protein
Experiment: RBC adhesion to plate-bound CD33-Fc; antibody 1.0 ug/ml;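 note: red blood cells adhering to plate-coated CD33-Fc after 1 h antibody pretreatment, then 1 h at room temperature, bound cells read as peroxidase activity after lysis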

| Binder | Percent RBC Binding to CD33 [%] |
| --- | --- |
| B1 | 12.6 |
| B2 | 18.9 |
| B3 | 9.73 |
| B4 | 12.9 |
| B5 | 9.33 |
| B6 | 67 |
| B7 | 87.7 |
| B8 | 98.1 |
| B9 | 8.95 |
| B10 | 10.1 |
